Source: article doi:10.1101/2025.11.04.686606, “The C-terminal intrinsically disordered region of a fungal LPMO binds copper and displays anti-fungal properties” (bioRxiv, 2025)

B1: PcoAA14A_FL, full-length AA14A lytic polysaccharide monooxygenase from Pycnoporus coccineus (enzyme, UniProt A0A2I6QAZ5 22-428, looked up)
chain: HAAFWDKSMYGFNVTAQTFPYDNRPQVPLYNMTFDQWWFHGHKDYPPNEGDFFELPAGGEVNSIISCDKGATPFYESSPGGDSGYGSNSPCPGQPMSEYHTTGIDDVKGCCMAIAYKPDVNDVQPDDFVVFSCNSTCVWEMNTKFEIPKLPACPEGGCHCAWFWIHSYDSGAEQIYMNGFKCKVTGDVGTQPLGKPAVPRRCGADPDHGKPDPTPGNCTIGAKTPMYWYQREGNNMFEDTYDAPYYNPLYGFNDGAQNDIFMDGVIASLASSGTGSSPTSTVDSSSSAAAASTSYPAQPTSSTQDAPGSSAYPSSSSDSVNSPTTQPYPASSASSTSEAQTTPAAVPTSVATEASSSPIASTTVDEAVVSSSTVGSINPTRSCKPRPSGVAAQKKKRKHARHLHNAH
modifications: glycosylated (glycans 34% of the molar mass by SEC-MALLS)
notes: PcoAA14A, AA14 family LPMO of Pycnoporus coccineus (syn. Trametes coccinea), Genbank KY769369; catalytic domain followed by a dCTR of 137 residues; theoretical mass 46 kDa; Expressed from pPICZalphaA; source: Pichia pastoris SuperMan5, secreted, purified (HisTrap); not shown: His6, C-terminal, kept
B2: P3 peptide, last 25 residues of PcoAA14A_dCTR (peptide, UniProt A0A2I6QAZ5 404-428, looked up)
peptide: CKPRPSGVAAQKKKRKHARHLHNAH
notes: the last 25 residues of PcoAA14A of Pycnoporus coccineus, starting with a Cys corresponding to Cys404; Unlabelled peptide in EPR and SAXS; the 5-FAM labelled form was used only on fungal spores; source: synthetic peptide, bought: GenScript

Key:
[1] = target: the molecule itself; assay: SEC-MALLS; Superdex200 10/300 GL Increase, 50 mM MES pH 6.5, 150 mM NaCl; protein conjugate analysis for glycans
[2] = target: the molecule itself; assay: SAXS; P3 at 2 mg/mL; conformational ensembles from 1 us MD simulations refined against SAXS data (Bayesian maximum entropy)

| Protein | stoichiometry N [1] | stoichiometry N [2] |
| --- | --- | --- |
| B1 | 2 |  |
| B2 |  | 2 |
